Reference: patent US20160272683A1 (Novo Nordisk, published 2016)
Numbered stars: 1 amine (or outer) side, 2 acyl side, 3 side chain; on linkers, the order of the positions; unused ones are H or OH. Side chains are listed from the residue outwards. Ends that are not written are not given here. * marks the point of attachment. C20 diacid = O=C(O)CCCCCCCCCCCCCCCCCCC(=O)*; C18 diacid = O=C(O)CCCCCCCCCCCCCCCCC(=O)*; γGlu = O=C(O)[C@H](CCC(=O)[*:2])N[*:1]

T1: human amylin 3(a) receptor (human calcitonin receptor co-expressed with RAMP-3) on BHK570/CRE-luc cells (human, UniProt P30988 25-474; O60896 24-148)
T1 sequence (looked up) 1: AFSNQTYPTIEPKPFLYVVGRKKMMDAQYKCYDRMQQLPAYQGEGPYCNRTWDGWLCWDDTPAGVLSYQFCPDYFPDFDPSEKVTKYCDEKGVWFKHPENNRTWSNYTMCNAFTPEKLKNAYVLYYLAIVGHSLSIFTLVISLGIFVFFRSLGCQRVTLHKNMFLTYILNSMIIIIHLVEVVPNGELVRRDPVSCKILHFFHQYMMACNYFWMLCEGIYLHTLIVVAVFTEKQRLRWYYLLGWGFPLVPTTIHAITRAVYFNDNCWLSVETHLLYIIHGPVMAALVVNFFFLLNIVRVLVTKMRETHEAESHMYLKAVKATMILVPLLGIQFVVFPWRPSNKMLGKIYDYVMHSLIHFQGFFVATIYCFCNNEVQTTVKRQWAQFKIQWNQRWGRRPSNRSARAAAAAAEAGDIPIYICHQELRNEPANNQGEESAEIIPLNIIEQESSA
T1 sequence (looked up) 2: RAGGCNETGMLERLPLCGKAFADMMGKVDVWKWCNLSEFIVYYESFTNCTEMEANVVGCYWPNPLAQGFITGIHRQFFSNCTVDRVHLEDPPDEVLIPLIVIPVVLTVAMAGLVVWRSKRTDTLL

T2: human calcitonin receptor on BHK570/CRE-luc cells (human, UniProt P30988 25-474)
T2 sequence (looked up): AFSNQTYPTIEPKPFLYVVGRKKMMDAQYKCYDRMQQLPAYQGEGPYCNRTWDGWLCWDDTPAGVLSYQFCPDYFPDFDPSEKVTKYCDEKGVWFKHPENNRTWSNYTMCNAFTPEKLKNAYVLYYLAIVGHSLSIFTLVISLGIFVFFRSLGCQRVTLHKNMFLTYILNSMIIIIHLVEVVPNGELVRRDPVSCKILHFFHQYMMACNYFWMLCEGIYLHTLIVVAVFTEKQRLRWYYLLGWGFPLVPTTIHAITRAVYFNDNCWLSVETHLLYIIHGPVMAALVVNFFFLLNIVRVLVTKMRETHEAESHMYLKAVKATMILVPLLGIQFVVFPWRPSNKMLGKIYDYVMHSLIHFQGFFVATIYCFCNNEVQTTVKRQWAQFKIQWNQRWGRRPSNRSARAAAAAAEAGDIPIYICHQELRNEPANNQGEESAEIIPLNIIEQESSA


What was measured:
[1] = biological target: T1, human amylin 3(a) receptor (human …); experiment: cell-based or functional assay
[2] = biological target: T2, human calcitonin receptor on …; experiment: cell-based or functional assay

| Binder | hAmylin-R funct. EC50 (pM), tested with HSA [1] [pM] | hCTR funct. EC50 (pM), tested with HSA [2] [pM] |
| --- | --- | --- |
| {C18 diacid-γGlu}-ASGLSTAALGRLSQELHELQTYPRTETGSGTY-NH2 (SMILES CC(C)C[C@H](NC(=O)CNC(=O)[C@H](CO)NC(=O)[C@H](C)NC(=O)CC[C@H](NC(=O)CCCCCCCCCCCCCCCCC(=O)O)C(=O)O)C(=O)N[C@@H](CO)C(=O)N[C@H](C(=O)N[C@@H](C)C(=O)N[C@@H](C)C(=O)N[C@@H](CC(C)C)C(=O)NCC(=O)N[C@@H](CCCNC(=N)N)C(=O)N[C@@H](CC(C)C)C(=O)N[C@@H](CO)C(=O)N[C@@H](CCC(N)=O)C(=O)N[C@@H](CCC(=O)O)C(=O)N[C@@H](CC(C)C)C(=O)N[C@@H](Cc1c[nH]cn1)C(=O)N[C@@H](CCC(=O)O)C(=O)N[C@@H](CC(C)C)C(=O)N[C@@H](CCC(N)=O)C(=O)N[C@H](C(=O)N[C@@H](Cc1ccc(O)cc1)C(=O)N1CCC[C@H]1C(=O)N[C@@H](CCCNC(=N)N)C(=O)N[C@H](C(=O)N[C@@H](CCC(=O)O)C(=O)N[C@H](C(=O)NCC(=O)N[C@@H](CO)C(=O)NCC(=O)N[C@H](C(=O)N[C@@H](Cc1ccc(O)cc1)C(N)=O)[C@@H](C)O)[C@@H](C)O)[C@@H](C)O)[C@@H](C)O)[C@@H](C)O) [[N-terminal(C18 diacid-gGlu), des1, 4G, 15Q, 21Q, 23Y, 30S, 31G, 32T, 33Y]mimylin] | 70 | 53 |
| {C18 diacid-γGlu}-ASELTTAVLGRLEAELHELTTLPRTETGTGTP-NH2 [[N-terminal(C18 diacid-gGlu), des1, 6T, 9V, 14E, 21T, 30T, 31G, 32T]mimylin] | 157 | 31 |
| {C18 diacid-γGlu}-ASELTTAVLGRLTAELHELETLPRTETGTGTP-NH2 (SMILES CC(C)C[C@H](NC(=O)[C@H](CCC(=O)O)NC(=O)[C@H](C)NC(=O)[C@@H](NC(=O)[C@H](CC(C)C)NC(=O)[C@H](CCCNC(=N)N)NC(=O)CNC(=O)[C@H](CC(C)C)NC(=O)[C@@H](NC(=O)[C@H](C)NC(=O)[C@@H](NC(=O)[C@@H](NC(=O)[C@H](CC(C)C)NC(=O)[C@H](CCC(=O)O)NC(=O)[C@H](CO)NC(=O)[C@H](C)NC(=O)CC[C@H](NC(=O)CCCCCCCCCCCCCCCCC(=O)O)C(=O)O)[C@@H](C)O)[C@@H](C)O)C(C)C)[C@@H](C)O)C(=O)N[C@@H](Cc1c[nH]cn1)C(=O)N[C@@H](CCC(=O)O)C(=O)N[C@@H](CC(C)C)C(=O)N[C@@H](CCC(=O)O)C(=O)N[C@H](C(=O)N[C@@H](CC(C)C)C(=O)N1CCC[C@H]1C(=O)N[C@@H](CCCNC(=N)N)C(=O)N[C@H](C(=O)N[C@@H](CCC(=O)O)C(=O)N[C@H](C(=O)NCC(=O)N[C@H](C(=O)NCC(=O)N[C@H](C(=O)N1CCC[C@H]1C(N)=O)[C@@H](C)O)[C@@H](C)O)[C@@H](C)O)[C@@H](C)O)[C@@H](C)O) [[N-terminal(C18 diacid-gGlu), des1, 6T, 9V, 14T, 21E, 30T, 31G, 32T]mimylin] | 179 | 22 |
| {C20 diacid}-ASGLSTAALGRLSQELHELQTYPRTETGSGTY-NH2 (SMILES CC(C)C[C@H](NC(=O)CNC(=O)[C@H](CO)NC(=O)[C@H](C)NC(=O)CCCCCCCCCCCCCCCCCCC(=O)O)C(=O)N[C@@H](CO)C(=O)N[C@H](C(=O)N[C@@H](C)C(=O)N[C@@H](C)C(=O)N[C@@H](CC(C)C)C(=O)NCC(=O)N[C@@H](CCCNC(=N)N)C(=O)N[C@@H](CC(C)C)C(=O)N[C@@H](CO)C(=O)N[C@@H](CCC(N)=O)C(=O)N[C@@H](CCC(=O)O)C(=O)N[C@@H](CC(C)C)C(=O)N[C@@H](Cc1c[nH]cn1)C(=O)N[C@@H](CCC(=O)O)C(=O)N[C@@H](CC(C)C)C(=O)N[C@@H](CCC(N)=O)C(=O)N[C@H](C(=O)N[C@@H](Cc1ccc(O)cc1)C(=O)N1CCC[C@H]1C(=O)N[C@@H](CCCNC(=N)N)C(=O)N[C@H](C(=O)N[C@@H](CCC(=O)O)C(=O)N[C@H](C(=O)NCC(=O)N[C@@H](CO)C(=O)NCC(=O)N[C@H](C(=O)N[C@@H](Cc1ccc(O)cc1)C(N)=O)[C@@H](C)O)[C@@H](C)O)[C@@H](C)O)[C@@H](C)O)[C@@H](C)O) [[N-terminal(C20 diacid), des1, 4G, 15Q, 21Q, 23Y, 30S, 31G, 32T, 33Y]mimylin] | 52 | 49 |

The next lines start with the values.

| hAmylin-R funct. EC50 (pM), tested with HSA [1] [pM] | hCTR funct. EC50 (pM), tested with HSA [2] [pM] | Binder |
| --- | --- | --- |
| 122 | 53 | {C20 diacid-γGlu}-ASGLSTAVLGRLSAELHELATYPRTETGSGTY-NH2 (SMILES CC(C)C[C@H](NC(=O)CNC(=O)[C@H](CO)NC(=O)[C@H](C)NC(=O)CC[C@H](NC(=O)CCCCCCCCCCCCCCCCCCC(=O)O)C(=O)O)C(=O)N[C@@H](CO)C(=O)N[C@H](C(=O)N[C@@H](C)C(=O)N[C@H](C(=O)N[C@@H](CC(C)C)C(=O)NCC(=O)N[C@@H](CCCNC(=N)N)C(=O)N[C@@H](CC(C)C)C(=O)N[C@@H](CO)C(=O)N[C@@H](C)C(=O)N[C@@H](CCC(=O)O)C(=O)N[C@@H](CC(C)C)C(=O)N[C@@H](Cc1c[nH]cn1)C(=O)N[C@@H](CCC(=O)O)C(=O)N[C@@H](CC(C)C)C(=O)N[C@@H](C)C(=O)N[C@H](C(=O)N[C@@H](Cc1ccc(O)cc1)C(=O)N1CCC[C@H]1C(=O)N[C@@H](CCCNC(=N)N)C(=O)N[C@H](C(=O)N[C@@H](CCC(=O)O)C(=O)N[C@H](C(=O)NCC(=O)N[C@@H](CO)C(=O)NCC(=O)N[C@H](C(=O)N[C@@H](Cc1ccc(O)cc1)C(N)=O)[C@@H](C)O)[C@@H](C)O)[C@@H](C)O)[C@@H](C)O)C(C)C)[C@@H](C)O) [[N-terminal(C20 diacid-gGlu), des1, 4G, 9V, 23Y, 30S, 31G, 32T, 33Y]mimylin] |
| 150 | 68 | {C20 diacid-γGlu}-ASGLSTAALGRLSQELHELETYPRTETGSGTY-NH2 (SMILES CC(C)C[C@H](NC(=O)CNC(=O)[C@H](CO)NC(=O)[C@H](C)NC(=O)CC[C@H](NC(=O)CCCCCCCCCCCCCCCCCCC(=O)O)C(=O)O)C(=O)N[C@@H](CO)C(=O)N[C@H](C(=O)N[C@@H](C)C(=O)N[C@@H](C)C(=O)N[C@@H](CC(C)C)C(=O)NCC(=O)N[C@@H](CCCNC(=N)N)C(=O)N[C@@H](CC(C)C)C(=O)N[C@@H](CO)C(=O)N[C@@H](CCC(N)=O)C(=O)N[C@@H](CCC(=O)O)C(=O)N[C@@H](CC(C)C)C(=O)N[C@@H](Cc1c[nH]cn1)C(=O)N[C@@H](CCC(=O)O)C(=O)N[C@@H](CC(C)C)C(=O)N[C@@H](CCC(=O)O)C(=O)N[C@H](C(=O)N[C@@H](Cc1ccc(O)cc1)C(=O)N1CCC[C@H]1C(=O)N[C@@H](CCCNC(=N)N)C(=O)N[C@H](C(=O)N[C@@H](CCC(=O)O)C(=O)N[C@H](C(=O)NCC(=O)N[C@@H](CO)C(=O)NCC(=O)N[C@H](C(=O)N[C@@H](Cc1ccc(O)cc1)C(N)=O)[C@@H](C)O)[C@@H](C)O)[C@@H](C)O)[C@@H](C)O)[C@@H](C)O) [[N-terminal(C20 diacid-gGlu), des1, 4G, 15Q, 21E, 23Y, 30S, 31G, 32T, 33Y]mimylin] |
| 158 | 108 | {C20 diacid-γGlu}-ASGLSTAALGRLSQELHELQTYPRTETGSQTY-NH2 (SMILES CC(C)C[C@H](NC(=O)CNC(=O)[C@H](CO)NC(=O)[C@H](C)NC(=O)CC[C@H](NC(=O)CCCCCCCCCCCCCCCCCCC(=O)O)C(=O)O)C(=O)N[C@@H](CO)C(=O)N[C@H](C(=O)N[C@@H](C)C(=O)N[C@@H](C)C(=O)N[C@@H](CC(C)C)C(=O)NCC(=O)N[C@@H](CCCNC(=N)N)C(=O)N[C@@H](CC(C)C)C(=O)N[C@@H](CO)C(=O)N[C@@H](CCC(N)=O)C(=O)N[C@@H](CCC(=O)O)C(=O)N[C@@H](CC(C)C)C(=O)N[C@@H](Cc1c[nH]cn1)C(=O)N[C@@H](CCC(=O)O)C(=O)N[C@@H](CC(C)C)C(=O)N[C@@H](CCC(N)=O)C(=O)N[C@H](C(=O)N[C@@H](Cc1ccc(O)cc1)C(=O)N1CCC[C@H]1C(=O)N[C@@H](CCCNC(=N)N)C(=O)N[C@H](C(=O)N[C@@H](CCC(=O)O)C(=O)N[C@H](C(=O)NCC(=O)N[C@@H](CO)C(=O)N[C@@H](CCC(N)=O)C(=O)N[C@H](C(=O)N[C@@H](Cc1ccc(O)cc1)C(N)=O)[C@@H](C)O)[C@@H](C)O)[C@@H](C)O)[C@@H](C)O)[C@@H](C)O) [[N-terminal(C20 diacid-gGlu), des1, 4G, 15Q, 21Q, 23Y, 30S, 31Q, 32T, 33Y]mimylin] |
| 335 | 113 | ASGLSTAALGRLSQELHELQTYPRTETGSK([γGlu-C20 diacid])TY-NH2 (N-terminus assumed; SMILES CC(C)C[C@H](NC(=O)CNC(=O)[C@H](CO)NC(=O)[C@H](C)N)C(=O)N[C@@H](CO)C(=O)N[C@H](C(=O)N[C@@H](C)C(=O)N[C@@H](C)C(=O)N[C@@H](CC(C)C)C(=O)NCC(=O)N[C@@H](CCCNC(=N)N)C(=O)N[C@@H](CC(C)C)C(=O)N[C@@H](CO)C(=O)N[C@@H](CCC(N)=O)C(=O)N[C@@H](CCC(=O)O)C(=O)N[C@@H](CC(C)C)C(=O)N[C@@H](Cc1c[nH]cn1)C(=O)N[C@@H](CCC(=O)O)C(=O)N[C@@H](CC(C)C)C(=O)N[C@@H](CCC(N)=O)C(=O)N[C@H](C(=O)N[C@@H](Cc1ccc(O)cc1)C(=O)N1CCC[C@H]1C(=O)N[C@@H](CCCNC(=N)N)C(=O)N[C@H](C(=O)N[C@@H](CCC(=O)O)C(=O)N[C@H](C(=O)NCC(=O)N[C@@H](CO)C(=O)N[C@@H](CCCCNC(=O)CC[C@H](NC(=O)CCCCCCCCCCCCCCCCCCC(=O)O)C(=O)O)C(=O)N[C@H](C(=O)N[C@@H](Cc1ccc(O)cc1)C(N)=O)[C@@H](C)O)[C@@H](C)O)[C@@H](C)O)[C@@H](C)O)[C@@H](C)O) [[des1, 4G, 15Q, 21Q, 23Y, 30S, 31K(C20 diacid-gGlu), 32T, 33Y]mimylin] |
